Results published in US20240067711A1 (MEDYTOX, published 2024).

Assays:
[1] = molecular target: human VEGF (hVEGF), isoform not stated (human, UniProt P15692-4 27-191, limits assumed); assay: ELISA on coated hVEGF (500 ng/ml), detection with anti-hIgG-Fc HRP, A450
Procedure: ELISA was performed to confirm the binding ability to VEGF. First, 100 μl of hVEGF was added to an immunoplate at a concentration of 500 ng/ml and caused to react at room temperature for 1 hour. 2% skim milk was dissolved in PBST, and then, 200 μl thereof was added onto the VEGF-coated wells and the reaction was caused to occur at room temperature for 2 hours. After the reaction, the well was washed three times using 300 μl of PBST, and then, Hz2, AAA0289, AAA0308, AAA0589, AAA0592, and AAA0600, which were purified above, were diluted starting from at a concentration of 100 ng/ml by two-fold to make a total of 11 samples. The samples were placed on the VEGF-coated well and the reaction was caused to occur at room temperature for 20 minutes. After the reaction, the well was washed three times using 300 μl of PBST, and then, anti-hIgG-Fc HRP (1:3000, Thermo) was added thereto at 100 μl/well and then reacted for 30 minutes. Then, the well was washed three times as described above, and the TMB (BioFx company) solution was added thereto at 100 μl/well to develop color at room temperature for 5 minutes. After the color development, 2N sulfuric acid was added at 50 μl/well to stop the color development, and the absorbance was measured at 450 nm, and results are shown in FIGS. 4A and 4B.

[2] = molecular target: T1, recombinant human VEGF165 (human, UniProt P15692-4 27-191); assay: Octet red96E BLI, human VEGF165 amine-coupled on AR2G sensor, hexamer as analyte (0.0625-0.6 nM), 30° C.
T1 construct: Bought protein from two vendors, treated as one molecule; Species is stated for the Octet material; the R&D material is printed only as VEGF165
T1 sequence (P15692 other isoform, or with tags, fused parts or gaps limits assumed): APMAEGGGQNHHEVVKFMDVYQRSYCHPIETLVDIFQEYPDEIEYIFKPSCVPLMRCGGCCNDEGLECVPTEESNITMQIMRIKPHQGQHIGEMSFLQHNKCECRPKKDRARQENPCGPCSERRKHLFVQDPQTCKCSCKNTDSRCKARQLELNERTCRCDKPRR
Procedure: (§1) Affinity for VEGF was determined as follows. Octet red96E was used, and human VEGF immobilized on the biosensor AR2G was interacted with AAA0308, AAA0589, AAA0592, and AAA0600 used as analytes, and binding and dissociation values thereof were compared and measured. As human VEGF, recombinant human VEGF165 (Sinobiological company) was used, and VEGF was immobilized on the AR2G sensor chip by an amine coupling method. At this time, the amount of VEGF used was 10 μg/ml, and the degree of coating was confirmed using a wavelength of 5 nm.
(§2) During measurement, the rotation speed was set to 100, and the temperature was measured at 30° C.
(§3) The concentration of the sample was adjusted using a kinetic buffer (Molecular Device Co.). The antibody solution of each concentration was used as a binding phase for 5 minutes, and then switched to a kinetic buffer to form a dissociation phase for 30 minutes.

[3] = molecular target: T1, recombinant human VEGF165; assay: cell-based or functional assay
[4] = molecular target: T1, recombinant human VEGF165; assay: cell-based or functional assay; remark: listed apart in the source
[5] = molecular target: T2, FcγRI (R&D system company, 1257-Fc) (UniProt P12314 16-288); assay: Octet; FcγRI loaded on anti-penta-His biosensor, antibody 100 nM as analyte
T2 sequence (P12314 16-288 limits assumed): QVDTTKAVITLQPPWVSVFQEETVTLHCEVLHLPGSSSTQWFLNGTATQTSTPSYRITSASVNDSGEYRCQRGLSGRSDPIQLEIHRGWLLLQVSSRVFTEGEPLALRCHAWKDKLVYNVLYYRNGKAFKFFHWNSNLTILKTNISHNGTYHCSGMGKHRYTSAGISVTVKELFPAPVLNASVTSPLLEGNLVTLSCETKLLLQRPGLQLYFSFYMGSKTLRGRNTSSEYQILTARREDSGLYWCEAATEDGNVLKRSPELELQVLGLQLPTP

[6] = molecular target: T1, recombinant human VEGF165; assay: Octet red96E BLI, human VEGF165 amine-coupled on AR2G sensor, hexamer as analyte (0.0625-4 nM), 30° C.
Procedure: as §1, §2, §3

[7] = molecular target: T2, FcγRI (R&D system company, 1257-Fc); assay: Octet; FcγRI loaded on anti-penta-His biosensor, antibody 100 nM as analyte, 2 min association and 2 min dissociation
Procedure: Binding evaluation for FcγR I, II, and III was performed as follows. Octet red96E was used, and […] FcγRI(R&D system company, 1257-Fc), […] FcγRII(R&D system company, 1597-CF), and […] FcγRIII(R&D system company, […]) were each loaded on the anti-pentia his biosensor, and a signal of about 5 nm was confirmed. In order to identify the reactivity of AAA0589 and AAA0592 to FcγRI, FcγRII, and FcγRIII, binding force was measured using an antibody concentration of 100 nM as an analyte. During measurement, rpm was set to 100, and the temperature was measured at 30° C. Samples were diluted using kinetic buffer (Molecular Device Co.). The antibody solution of each concentration was used as an association phase for 2 minutes, and then converted to a kinetic buffer to form a dissociation phase for 2 minutes.

Chain of human VEGF (hVEGF), isoform not stated (P15692 other isoform, or with tags, fused parts or gaps limits assumed): as the sequence (P15692 other isoform, or with tags, fused parts or gaps limits assumed) above

| Binder | EC50 (read off the curve) [1] | Kd [2] | IC50 of inhibition of the VEGF-induced calcium increase in HUVEC cells [3] | IC50 (read off the curve) [4] | binding result [5] | Kd [6] | koff [6] | kon [6] | binding result [7] |
| --- | --- | --- | --- | --- | --- | --- | --- | --- | --- |
| Hz2 humanized anti-VEGF antibody (monomer) (antibody, V domains shown) VH: EVQLVESGGGLVQPGGSLRLSCAVSGIDLNRYSLTWIRQAPGKGLEWVAIVGGSGVTYYANWAKGRFTISRDDSKNTLYLQMNSLRAEDTAVYYCARGSDRSAYAPDIWGQGTLVTVSS VL: DIQLTQSPSSLSASVGDRVTITCQSSQSIYSNNYLAWYQQKPGKAPKLLLYQASKLASGVPSRFSGSGSGTDFTLTISSLQPEDFATYYCLGVYDDDADNAFGQGTKVEIKR | ~0.02 nM |  |  |  |  |  |  |  |  |
| Aflibercept CL kappa hexamer AAA0600 (Fc fusion) SDTGRPFVEMYSEIPEIIHMTEGRELVIPCRVTSPNITVTLKKFPLDTLIPDGKRIIWDSRKGFIISNATYKEIGLLTCEATVNGHLYKTNYLTHRQTNTIIDVVLSPSHGIELSVGEKLVLNCTARTELNVGIDFNWEYPSSKHQHKKLVNRDLKTQSGSEMKKFLSTLTIDGVTRSDQGLYTCAASSGLMTKKNSTFVRVHEKTVAAPRTVAAPSVFIFPPSDEQLKSGTASVVCLLNNFYPREAKVQWKVDNALQSGNSQESVTEQDSKDSTYSLSSTLTLSKADYEKHKVYACEVTHQGLSSPVTKSFNRGESDKTHTCPPCPAPEAAGGPSVFLFPPKPKDTLMISRTPEVTCVVVDVSHEDPEVKFNWYVDGVEVHNAKTKPREEQYNSTYRVVSVLTVCLQDWLNGKEYKCKVSNKALPAGIEKTISKAKGQPREPQVYTLPPSRDELTKNQVSLTCLVKGFYPSDIAVEWESNGQPENNYKTTPPVLDSDGSFFLYSKLTVDKSRWQQGNVFSCSVMHHALHNHYTQKSLSLSPGKPTLYNVSLVMSDTAGTCY | ~0.04 nM | 0.00203 nM | 0.2 nM | ~0.2 nM |  |  |  |  |  |
| Lu007-F hexamer AAA0592 (antibody, human IgG1, kappa, L234A L235A, also called Lu007 hexamer AAA0592) heavy: EVQLVESGGGLVQPGGSLRLSCAASGYDFTHYGMNWIRQAPGKGLEWVGWINTYTGEPTYAADFKRRFTFSLDTSKSTVYLQMNSLRAEDTAVYYCAKYPHYYGTSHWYFDVWGQGTLVTVSSASTKGPSVFPLAPSSKSTSGGTAALGCLVKDYFPEPVTVSWNSGALTSGVHTFPAVLQSSGLYSLSSVVTVPSSSLGTQTYICNVNHKPSNTKVDKKVEPKSCDKTHTCPPCPAPEAAGGPSVFLFPPKPKDTLMISRTPEVTCVVVDVSHEDPEVKFNWYVDGVEVHNAKTKPREEQYNSTYRVVSVLTVCLQDWLNGKEYKCKVSNKALPAGIEKTISKAKGQPREPQVYTLPPSRDELTKNQVSLTCLVKGFYPSDIAVEWESNGQPENNYKTTPPVLDSDGSFFLYSKLTVDKSRWQQGNVFSCSVMHEALHNHYTQKSLSLSPGKPTLYNVSLVMSDTAGTCY light: not shown | ~0.09 nM |  | 0.2 nM | ~0.3 nM | no binding (tested: 100 nM) | < 0.001 nM | < 1e-07 s⁻¹ | 666000 M⁻¹ s⁻¹ |  |
| Hz2-F hexamer AAA0589 (antibody, human IgG1, kappa, L234A L235A, also called hexameric antibody AAA0589) heavy: EVQLVESGGGLVQPGGSLRLSCAVSGIDLNRYSLTWIRQAPGKGLEWVAIVGGSGVTYYANWAKGRFTISRDDSKNTLYLQMNSLRAEDTAVYYCARGSDRSAYAPDIWGQGTLVTVSSASTKGPSVFPLAPSSKSTSGGTAALGCLVKDYFPEPVTVSWNSGALTSGVHTFPAVLQSSGLYSLSSVVTVPSSSLGTQTYICNVNHKPSNTKVDKKVEPKSCDKTHTCPPCPAPEAAGGPSVFLFPPKPKDTLMISRTPEVTCVVVDVSHEDPEVKFNWYVDGVEVHNAKTKPREEQYNSTYRVVSVLTVCLQDWLNGKEYKCKVSNKALPAGIEKTISKAKGQPREPQVYTLPPSRDELTKNQVSLTCLVKGFYPSDIAVEWESNGQPENNYKTTPPVLDSDGSFFLYSKLTVDKSRWQQGNVFSCSVMHHALHNHYTQKSLSLSPGKPTLYNVSLVMSDTAGTCY light: DIQLTQSPSSLSASVGDRVTITCQSSQSIYSNNYLAWYQQKPGKAPKLLLYQASKLASGVPSRFSGSGSGTDFTLTISSLQPEDFATYYCLGVYDDDADNAFGQGTKVEIKRTVAAPSVFIFPPSDEQLKSGTASVVCLLNNFYPREAKVQWKVDNALQSGNSQESVTEQDSKDSTYSLSSTLTLSKADYEKHKVYACEVTHQGLSSPVTKSFNRGEC | ~0.04 nM |  | 0.2 nM | ~0.2 nM | no binding (tested: 100 nM) | < 0.001 nM | < 1e-07 s⁻¹ | 208000 M⁻¹ s⁻¹ |  |
| Omal013 (positive control antibody) (antibody, human IgG1, kappa, also called positive control group) heavy: not shown light: DIQLTQSPSSLSASVGDRVTITCQSSQSIYSNNYLAWYQQKPGKAPKLLLYQASKLASGVPSRFSGSGSGTDFTLTISSLQPEDFATYYCLGVYDDDADNAFGQGTKVEIKRTVAAPSVFIFPPSDEQLKSGTASVVCLLNNFYPREAKVQWKVDNALQSGNSQESVTEQDSKDSTYSLSSTLTLSKADYEKHKVYACEVTHQGLSSPVTKSFNRGEC |  |  |  |  |  |  |  |  | binds |
